From the DeepSol protein solubility set

Test: soluble on expression in E. coli; label from the status in PepcDB or PDB records

Sequence	soluble on expression in E. coli
SGSAARQPLFSFGVIADVQYADISDGRSFLGVPRYYRNSILVLQRAVETWNQHGNLKFVINMGDIVDGFCPKDQSLAATKKLVHEFEKFNGPVYHMIGNHCLYNLPREELLPLLKIPGRDGNAYYDFSPTPEYRVVVLDGYDISAVGWPQEHPNTIAALKILEEKNPNTDKNSPAGLEDVARRFVKYNGGVGEKQLQWLDSVLQDASNSNQRVIVCGHVPMSPGVASKAALLWNFDEVMNIIHKYDSVKVCLSGHDHKGGYFVDSHGVHHRSLEAALECPPGTYSFGYIDVYDNKLSLVGTDRMQSTDFEN	soluble
MGSDKIHHHHHHMMYPMPSWVYDSVVYQIFPDRFFIGKGKTVEDKKDLYLKRGGVIEKWGVPPRKLPGAQHVKIFYGGDLWGIAEKVDYFEELGINVLYLTPIFLSDTNHKYDTIDYFRVDPQFGGKRAFLHLLRVLHERSMKLILDGVFNHVGSQHPWFKKAKKNDPEYVNRFFLYKDRHRSWFDVGSLPELNVEVEEVKEYILKVVEHYLKLGIDGWRLDCGHDLGPTVNLWINMKVKEFSAEKYLVSEIWTYPAGWDMVDGLMNYNFRNLVLSYVNGETDSIGFHLERAYRETKNIFGCWNMLDSHDTPRLATMVPDRDLRKLAVVLQFTYPGVPLVYYGTEIGLTGGEDPECRATMEWNREKWDVDLFEFYKKMIRLRRTDPGLRFGEFVLLNDSPLAFLRKAPHPLQNTIVVVNPGEEKVLVLSIPDGKIMNTTPLVDVFSGERFHVDGGVVKLPLLARSFRILKPEDLRVGKYRLYKRV	not soluble
SVRRKSCIVKEMEKMKNKREEKRAQNSELRIKRAQEYDSSFPNWEFARMIKEFRVTMECSPLTVTDPIEEHRICVCVRKRPLNKQELAKKEIDVISVPSKCLLLVHEPKLKVDLTKYLENQAFCFDFAFDETASNEVVYRFTARPLVQTIFEGGKATCFAYGQTGSGKTHTMGGDLSGKSQNASKGIYAMASRDVFLLKNQPRYRNLNLEVYVTFFEIYNGKVFDLLNKKAKLRVLEDSRQQVQVVGLQEYLVTCADDVIKMINMGSACRTSGQTFANSNSSRSHACFQILLRTKGRLHGKFSLVDLAGNERGADTSSADRQTRMEGAEINKSLLALKECIRALGQNKAHTPFRESKLTQVLRDSFIGENSRTCMIAMISPGISSCEYTLNTLRYADRVKELSHHHHHHH	soluble
KPGFQLGVTVDYEIGKHWMLMSGLSWLQNRSTMKMMDHMVTYFPKTEIKMNNLILPLKMGYNIRVSDKLSLIPSVGVYASYGFGAGNCSLDVIHQEGDNITTEPAKWKPLDGFSYKAGEPNNSGNLQAFRRWDYGGIVGMKAVIADHYTISFDYRVGIKKIQAQNGLRNSTFQFSVGYRF	not soluble
MTKKSTKSEAASKTKKSGVPETGAQGVRAGGADHADAAHLGTVNNALVNHHYLEEKEFQTVAETLQRNLATTISLYLKFKKYHWDIRGRFFRDLHLAYDEFIAEIFPSIDEQAERLVALGGSPLAAPADLARYSTVQVPQETVRDARTQVADLVQDLSRVGKGYRDDSQACDEANDPVTADMYNGYAATIDKIRWMLQAIMDDERLD	soluble
MGHHHHHHGGHMSLTDVNVKIDIMHPQPIVGLGNPAIFVQGSTQNYKEYTSLETLAKDFATTTTVYKKAEIIWKQENKPQTIAVVTFVADTPTSPEQPDSLIAGSGIIAAATSYFYNDWHFALLANFVEADALALSNLIEENEFKFLVIQTATVDELTVFTGNNLTIGLVHPLEEFLDAALIGNTASLTVGSVTWKFRHNLVGITPNTLTTSQLQAIEKANAIAYVSKAGIPQTSEGKTMSGEFIDALHGDHWVKSNIETNVQRLLSTTDKLTFDSNGIALLDTTVANVLETAFNNGIVDIVDETGVGNYSVTALGRQDLNPDDIAARNYKGLSFKYKRSGAIHTVDVTGTIEVEGGS	soluble
MNYVSLVLVSHSEEIAKGLKKLLKQIAPDVRIAAAGGSDGEIGTNALHIQEAIESVYSEKGTVVLFDLGSALLNAELALEMADRKERVRIADAPLVEGAYIAAVEAGLGKPLEEVVQACEAAKEMVKIAK	not soluble
MPSLLSSRIRNAEFAKKIVTDPAKLVPYFKNGDYVGWSGFTGVGYPKMIPNALARHVEENNLQGKLRFKLFVGASGGADTECKWAELNMIERRCPHQVGKPISKGINSGRIQFFDKHLSMFPQDLLYGYYTRNRESNTIDTAIIEATAITEDGGIVPGASVGASPELMQLAEKIIIEVNTAIPSFEGLHDIVEIPNPPHRTPININRVDDRIGKPYIKVDPKKVIGIVEADYGDITCANSPQDETSQAIAGHLVDFFHHEVSVGRLPKNLHPLQSGIGNIANAIIGGLAHSPFKDLEVWTEVLQDTFLPLFDSEKLRFATATSTRFSPQGFEKFYSNYDYYKERILLRPQVISNHPEIIRRLGCIAMNTPVEADIYAHANSTNVLGSRMLNGLGGSADFLRNAKLSIMHTPSVRPSKKDPTGITCIVPMATHVDQTEHDLDILVTEQGLADLRGLSPTERAREVIDKCAHPDYKPLLREYFDIAENYCLARGAGHEPHILANAFKMQLNLLEKGTMKIDHW	soluble
MGLIKAATSSVGGGLADQWLEVIEPDNMGDTTVMTKGVFVRKDDKRGSNRKGTDDVLTDGSVVHVYPNMMMLLVDGGKIIDYTAEEGYYTVKNDSAPSMFNGSLKDAIAETFSRFKFGGVTPQKQQVFYINLQEIKGIKFGTPAPLNYFDNFYNAELFLRAHGNYSIKITDPLLFYTNAIPKNQTQVDINDINEQYLAEFITALQAAINQMSADGQRISYVPSKSVELSKYMQTALDEDWRTNRGMEIVSVAVASISYTDDSTKLINMRNEGAMLSDPGVREGYVQGSLARGMEAAGKNEGGAMSGFMGVGMGMNANGNYFAQASQTNQQQMQEKQNQQNAQGATDTWTCPQCGTENTGKFCSNCGTPKPTNEKPKLEMKCSECSEIVDLSNGIPKFCPHCGKPFQGVPLLEHHHHHH	soluble
MGSDKIHHHHHHMDFIEVYPNALPDDLCDRLILAFDQHTGVVDGQTGNGVDPEKKISRDLTLDNFDDMQPLKNELLSYTLKGVVDYFTQYSMALMGAVAVSVSDAEGKPTTLTPSNFAQLGLPKVDGLVKYLYRSGSINIQKYQRNKGGYPHWHSEQFPQSGHNEALHRVVFYMFYLNDVEEGGETEFYYQRRKISPKKGTMVIAPAGFTHSHRGNMPISNDKYIATSWVMFNRAEQLYTVYA	not soluble
MTASIFSGVIPALMTPCRQDRTPDFDALVRKGKELIADGMSAVVYCGSMGDWPLLTDEQRMEGVERLVKAGIPVIVGTGAVNTASAVAHAVHAQKVGAKGLMVIPRVLSRGSVIAAQKAHFKAILSAAPEIPAVIYNSPYYGFATRADLFFALRAEHKNLVGFKEFGGPADMRYAAENITSRDDEVTLMIGVDTAVVHGFVNCGATGAITGIGNVLPKEVIHLCKLSQAAAKGDADARARALELEQALAVLSSFDEGPDLVLYFKYMMVLKGDKEYTLHFNETDALTDSQRGYVEAQFKLFNSWYADWSKLPGAVQTCKAA	soluble
MGSDKIHHHHHHMLVVGASGSGKSTFANCINGLIPFKTKGNITGELYINNQDATVSCLHDRSNVVGTVLQDTDGQFIGLTAAEDMAFLLENNCVEQDDMKKNVSYWAEKVGMIEHLNHRPQDLSGGQKQRVSLGGILIHRTPILILDEPLANLDPATGHETLRLLNNIHEETKSTMIIVEHRLEESLDDTFDRVLLFKDGKIIANTTPSDLLKSSKLKEAGIREPLYCTALKYAEVDVESIDNLANLRDVCMSEHVKFKVKKWIDETSANNDNKYKSEPLLELNEVCVQYSDYSNSVLNNVQLNVYRREMLSIVGHNGAGKSTLAKAICGFLDITGNIQFCNRGFNQLSISERSEFVGYVMQNPNHMISEKMIYDEVALGLRARGMKESDIKIRVENVLKICGLYAFRNWPIAALSYGQKKRVTIASVLVLNPEIIILDEPTAGQDFYHYNEIMSFLIELNRQGKTIIMITHDMHLLSEYSSRTVVLSKGQVVADTTPVLILNDKKICEIASLRQTSLFEMAEYIGISEPQKLVQLFINHDRKVRRQ	not soluble
MFRGATAVNLDSKGRVAIPTRYRAEILEKNQGQMVCTVDIRQSCLLLYPLDEWEKIEQKLLALSNFDPTQRRLQRVMLGHATECEMDAQGRILLSGPLRQHAKLEKGLMLVGQLNKFEIWSDVEWHTQIAEDIEIGSSTDFAADALNDFSL	not soluble
MASQEFQGFLDSSLLNEEDCRQMIYRSEREHDARMVGVNVDQHFTSQYRKVLTTWMFCVCKDLRQDNNVFPLAVALLDELFLSTRIDRENYQSTAAVALHIAGKVRAYMPIKATQLAYLCGGATTADKLLTLEVKSLDTLSWVADRCLSTDLICYILHIMHAPREDYLNIYNLCRPKIFCALCDGRSAMKRPVLITLACMHLTMNQKYDYYENRIDGVCKSLYITKEELHQCCDLVDIAIVSFDENYFKINA	soluble
MKMNLSTPFPLGATLDAEGCNFAIYAPANRDILLALFHADGSYETHQLEHEYAGVKHTHISGIHAGQKYGYLIQLNDELHYISDPYARALEGPLHYAPPFDSHKSFDLPKCVVTDTHFDWQNVAKPRIARDEMVLFETHVKGLTQLNPDVEKALRGKYLGLVSQPMLDFYRQQNINTLQLLPIAACMHEPHLLESGKVNYWGYNPYVFMAPDPRYASKDAVNELKTTIRELHRNGIQVILDVVYNHTAEGGTNGPVFNLKALDPNYYLHHGDHYANYTGCGNTVDLSNQAALNLVMDTLRCWVTEYQIDGFRFDLAATLGRRGDEFSKEAAFFKAVAQDPVLREVKLIAEPWDIGPNGYQVGNFPFGWNETNDKLRDITRSFWRGDLGFLKEFATRLMGSRDLYSAANWPYKLTVNYITYHDGFTLQDLVSYKHKHNEANGEQNRDGHGDNRSDNYGFEGDTDSIVIRATRERQKRNFMASLLFAFGIPHILTADVLSHTQKGNNNAYCQDNDISWLNWENNETKQDFREWLAGMVAARQTYMVPFIRAFSGENRNNNRIAWRRVDGKPMEMDDWNRLSSVALHIGIGSDGPEMLYLINQTNAPARFVLPKDRQQDWRLICDTNMRHAQHGHAEGEVLQLPVSMSILHYQPKKKSA	soluble
MGSDKIHHHHHHMAAKGKKKNFVLDTNVMLHDYECIEKFEENDIYIPIVSLEELDKFKKGSEQINFNARAFVRRLDEISDQDLFAKGASLGEGLGRIFVKINGQYHTKVKEAFGENKADHRILSIAMTLADEQPNIKTILVTKDVNLRMKARSLGMLVEDYINDKVTRVDLFENAEPEYEGVDGDLIDRIYASKDGIDIDEWELGSKIDPNDCFVMKSERNSVLARYNPFTGKIVRVEKGHYFGIQPRNAEQTFAMHILTDPNVKLIGLTGKAGTGKTLLALAAALSQEQSYKQILLARPIVSLANKDLGFLPGDEKAKVAPYMQPLFDNLNVIKGQLAQNSSELRRLDEMQKTEKLVIEALAYIRGRSVSETIFIVDEAQNLTPHEIKTIITRAGEGSKLIFTGDIEQIDSPYLDAQSNGLAYMIERMKGQPLFAHVNLIKGERSELSELASDLL	not soluble
YLDVRQVMYTLVAVFIGSRVIDFVQEGAYAARGALIISKDNDAIASHVMLSMNRGVTVLEGRGGFSKNEQDVLYIVVAKNEIVQLKNIVQAIDPHAFVSVSVVHDVMGEGFTLDENKNPIY	not soluble
MTFEEKRKHLETTYPNKRTPESRAKSREILKLIADNLEMFPIASPESSSSKAKTDPMSRLEHGSEFNDLTVPRVEKLTPVSELYSIENTSLKFGTEDDFSDLSYSNTSPFQSVSTLYDQPSTPFSDDSDLEATPRTCVQ	not soluble
